Patent US20230235334A1

Biological target: OmpR fused to the VP64 activation domain (E. coli)
Experiment: cell-based or functional assay

EnvZm2 (T247A) (from UniProt A0A4P7TSF2 1-450) (enzyme)
fold-change of OmpR-driven mKate2 median fluorescence output (6xmCMV37 promoter, HEK-293FT cells), EnvZm2 (kinase) against EnvZm1 (D244A phosphatase, SEQ ID NO: 2), at the highest levels of OmpR: 40 fold
fold-change of mKate2 median fluorescence output from the strongest OmpR promoter when the kinase (EnvZm2) or the phosphatase (EnvZm1) was present, HEK-293FT cells: 500 fold
relative kinase strength against EnvZm1 phosphatase, from OmpR-driven mKate2 output in kinase titrations (Open-loop against Const. P), HEK-293FT cells: < 3 fold
